Laboratory results: the supplement of paper PMC9732359
± gives the uncertainty stated by the source.

Assay: protein stability index of a GFP-peptide fusion (yeast GPS) (PSI 1-4); higher = more stable; sorted into four equal gates, so the index is relative within each strain
Procedure, shortened: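 Plasmids in a pooled yeast library fused tiled 17-residue yeast protein peptides downstream of GFP and also expressed Cherry. Mid-log cultures grown without leucine were sorted into four equal gates by GFP/Cherry fluorescence ratio. Each gate's plasmids were PCR-amplified and Illumina-sequenced, and reads were matched to strains by barcodes. The protein stability index is derived by multiplying each gate's read frequency by its gate number and summing the results.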

Sequence | protein stability index (doa10∆) | protein stability index (pdr5∆) | protein stability index (san1∆) | protein stability index (ubr1∆)
FTAEGIVPDLIINPHAI [RPB2] | 2.24 ± 0.069 | 2.36 ± 0.081 | 2.08 ± 0.081 | 2.67 ± 0.082
VKIMRDPAKSRTGPKAL [RPS3] | 3.35 ± 0.21 | 3.33 ± 0.12 | 3.06 ± 0.1 | 3.52 ± 0.11
GLRVRGQHTKTTGRRRA [RPS18A] | 2.09 ± 0.052 | 2.33 ± 0.066 | 2.21 ± 0.068 | 2.54 ± 0.037
HLKILASSNFPFLNETK [RPC82] | 2.52 ± 0.055 | 2.61 ± 0.064 | 2.51 ± 0.06 | 2.62 ± 0.045
NKINSRNSWNFALIDYF [BRN1] | 2.13 ± 0.2 | 1.27 ± 0.075 | 1.11 ± 0.11 | 1.1 ± 0.073
LISGAGANPRVLSTFTA [RPN10] | 2.16 ± 0.11 | 2.04 ± 0.1 | 2.02 ± 0.2 | 2.17 ± 0.072
ANQSATSTPPPPPAPHN [SNF5] | 2.98 ± 0.041 | 3.03 ± 0.034 | 2.82 ± 0.034 | 3.1 ± 0.032
KDAQKKDIEKLTNEISD [YIL149C/MLP2] | 2.54 ± 0.086 | 2.98 ± 0.07 | 2.65 ± 0.061 | 2.49 ± 0.078
HFKKPDITVHGEQIIVH [RRP45] | 1.43 ± 0.14 | 1.37 ± 0.23 | – | 1.4 ± 0.13
YQTKKFYDYIKERSIVV [REC8] | 2.49 ± 0.058 | 2.81 ± 0.054 | 2.14 ± 0.058 | 2.72 ± 0.047
NYLKYLEYWCNPPYSQC [SOH1] | 2.14 ± 0.052 | 2.25 ± 0.048 | 2.18 ± 0.063 | 2.28 ± 0.036
STRVEFEKLYSDLMKFL [FAS2] | 3.45 ± 0.3 | 3.27 ± 0.2 | 3.26 ± 0.15 | –
LQHELMISIIKLVTNVV [YML103C/NUP188] | 1.54 ± 0.071 | 1.8 ± 0.048 | 1.56 ± 0.18 | 1.57 ± 0.038
NLRLLVEENRVRYTTSV [DLS1] | 2.33 ± 0.071 | 2.65 ± 0.056 | 2.08 ± 0.079 | 2.43 ± 0.048
EMLEENFPEASKLSEHL [YCG1] | 2.55 ± 0.28 | 2.29 ± 0.24 | 2.82 ± 0.19 | 2.49 ± 0.15
KKLDYVLALKVEDFLER [RPS9A] | 1.76 ± 0.092 | 2.73 ± 0.079 | 2.08 ± 0.067 | 2.72 ± 0.072
KFILQILQILNLMILNT [YML103C/NUP188] | 1.3 ± 0.081 | 1.29 ± 0.064 | 1.42 ± 0.21 | 2.09 ± 0.03
NEDMVRRANFYKENEAM [SNF12] | 3.33 ± 0.11 | 3.48 ± 0.087 | 3.39 ± 0.057 | 3.48 ± 0.1
SFKKIIKFLLTFIDKER [YCS4] | 1.16 ± 0.065 | 1.29 ± 0.11 | 1.19 ± 0.14 | 1.17 ± 0.066
FKQAKERVMKNKVEENL [RPT2] | 3.11 ± 0.11 | 3.27 ± 0.061 | 3 ± 0.14 | 3.29 ± 0.11
AILLIINLTQTYGISVV [NUT1] | 1.53 ± 0.049 | 1.34 ± 0.043 | 1.7 ± 0.081 | 1.43 ± 0.04
NYLLKRNEDARRNLRYG [RPO31] | 3.35 ± 0.1 | 3.41 ± 0.094 | 3.51 ± 0.12 | 3.56 ± 0.056
YMKFSNKYLELCKLASN [RRI2] | 1.64 ± 0.05 | 1.87 ± 0.039 | 1.57 ± 0.092 | 1.76 ± 0.037
VIPSYSKWFNLEKIHSI [SWI3] | 1.69 ± 0.045 | 1.6 ± 0.049 | 1.44 ± 0.075 | 1.89 ± 0.038
EMARTKKACIIFFDEID [RPT1] | 2.14 ± 0.062 | 2.5 ± 0.068 | 2.54 ± 0.083 | 2.56 ± 0.047

Sequence | protein stability index (doa10∆) | protein stability index (pdr5∆) | protein stability index (san1∆) | protein stability index (ubr1∆)
AHMSIGCLHKGKLISNL [YML031W/NDC1] | 2.04 ± 0.079 | 1.9 ± 0.058 | 2.14 ± 0.15 | 1.83 ± 0.065
ENVKIINYLLTLAITTV [RPN2] | 2.95 ± 0.06 | 3.03 ± 0.057 | 2.56 ± 0.065 | 2.99 ± 0.055
NHNQFECKGCDNKIDIY [RPB2] | 3.06 ± 0.044 | 3.19 ± 0.047 | 3.06 ± 0.034 | 3.1 ± 0.037
TSPEKKDGGDKPPSSAF [YAR002W/NUP60] | 3.42 ± 0.13 | 3.34 ± 0.075 | 3.3 ± 0.081 | 3.72 ± 0.11
LAAIVSTVIEEFTLFMD [YGL172W/NUP49] | 2.21 ± 0.052 | 2.56 ± 0.061 | 2.1 ± 0.074 | 2.42 ± 0.055
SYEVEHVIQIPLNKPLL [TAF14] | 2.46 ± 0.069 | 2.66 ± 0.045 | 2.52 ± 0.06 | 2.51 ± 0.055
SGNEMPPQDAEGWFYKR [RPS19A] | 3.21 ± 0.13 | 3.29 ± 0.24 | 3.25 ± 0.13 | 3.17 ± 0.12
FLIDVLKIYAQIEKKEI [YCG1] | 1.26 ± 0.07 | 1.93 ± 0.063 | 1.21 ± 0.11 | 1.4 ± 0.054
QDRQQLLPLVVSNISCL [ECM29] | 1.38 ± 0.046 | 1.38 ± 0.036 | 1.29 ± 0.074 | 1.29 ± 0.034
LVVRFTNKDIICQIISS [RPL5] | 1.62 ± 0.055 | 1.79 ± 0.062 | 1.25 ± 0.18 | 1.67 ± 0.051
NAKDIQIPVYDTFDGSD [FAS1] | 2.47 ± 0.078 | 2.56 ± 0.07 | 2.07 ± 0.052 | 2.29 ± 0.064
LTCLPVPPPPVRPSISF [RPO21] | 2.28 ± 0.03 | 2.44 ± 0.031 | 2.36 ± 0.033 | 2.33 ± 0.026
IFIRQLKENEENEDGNI [BRR2] | 3.5 ± 0.094 | 3.37 ± 0.19 | 3.2 ± 0.067 | 2.01 ± 0.087
SGQLNFEIDGDVIHFED [PCI8] | 2.94 ± 0.091 | 2.83 ± 0.067 | 2.53 ± 0.075 | 2.83 ± 0.043
SSLVQKGLETIDNGAES [RPC53] | 2.65 ± 0.26 | 3.02 ± 0.21 | – | –
QAHTLYNSVRPFGVSTI [PRE10] | 2.71 ± 0.083 | 2.74 ± 0.071 | 2.92 ± 0.095 | 2.6 ± 0.042
NELMRWPIVQKTYEPVL [RPN5] | 2.25 ± 0.06 | 2.39 ± 0.057 | 2.24 ± 0.075 | 1.83 ± 0.037
NTEKDYKMVQEQLSKQR [SMC2] | 3.27 ± 0.065 | 3.17 ± 0.072 | 3.25 ± 0.045 | 3.23 ± 0.043
IVEINNVSNTFNKTTNI [YJL041W/NSP1] | 2.87 ± 0.048 | 2.9 ± 0.05 | 2.71 ± 0.046 | 2.86 ± 0.038
LRAHTDDSRNPDCKIKI [PRE2] | 2.86 ± 0.073 | 2.92 ± 0.12 | 2.86 ± 0.085 | 2.77 ± 0.11
GDLKLQVLLDEEYKQLV [RPO21] | 2.48 ± 0.12 | 2.94 ± 0.082 | 2.73 ± 0.11 | 3.2 ± 0.062
GIVSVSDPQMKVFDTLT [RPN1] | 2.81 ± 0.16 | 2.93 ± 0.12 | 2.87 ± 0.16 | 2.82 ± 0.13
MEYLSGGEKTVAALALL [SMC1] | 2.2 ± 0.15 | 2.41 ± 0.11 | 1.68 ± 0.19 | 2.3 ± 0.13
LVSSYLNKSDLLDKYGK [YML103C/NUP188] | 2.87 ± 0.091 | 3.13 ± 0.058 | 3.17 ± 0.053 | 2.89 ± 0.065
NPFEDDMDGVDFNQAFE [BRN1] | 3.31 ± 0.05 | 3.21 ± 0.064 | 3.39 ± 0.038 | 3.3 ± 0.049
